{"source": "paper PMC3690555", "about": "(Biochemistry, 2009)", "molecules": {"B1": {"name": "WT-NiSOD, recombinant nickel-dependent superoxide dismutase from Streptomyces coelicolor (enzyme, UniProt P80735 15-131, looked up)", "chain": "HCDLPCGVYDPAQARIEAESVKAVQEKMAGNDDPHFQTRATVIKEQRAELAKHHVSVLWSDYFKPPHFEKYPELHQLVNDTLKALSAAKGSKDPATGQKALDYIAQIDKIFWETKKA"}}, "key": {"[1]": {"target": "D3A-NiSOD (Streptomyces coelicolor)", "assay": "SEC + native MS"}, "[2]": {"target": "D3A-NiSOD (Streptomyces coelicolor)", "assay": "crystal structure"}, "[3]": {"target": "Y9F-NiSOD (Streptomyces coelicolor)", "assay": "SEC + native MS"}, "[4]": {"target": "Y9F-NiSOD (Streptomyces coelicolor)", "assay": "crystal structure"}, "[5]": {"target": "Y9FY62F-NiSOD (Streptomyces coelicolor)", "assay": "SEC + native MS"}, "[6]": {"target": "Y62F-NiSOD (Streptomyces coelicolor)", "assay": "SEC + native MS"}, "[7]": {"target": "the molecule itself", "assay": "SEC + native MS"}}}
{"molecule": "D3A-NiSOD (enzyme)", "values": [{"measurement": "stoichiometry N", "setting": "[1]", "value": 6}, {"measurement": "stoichiometry N", "setting": "[2]", "value": 6}]}
{"molecule": "Y9F-NiSOD (enzyme)", "values": [{"measurement": "stoichiometry N", "setting": "[3]", "value": 6}, {"measurement": "stoichiometry N", "setting": "[4]", "value": 6}]}
{"molecule": "Y9FY62F-NiSOD (enzyme)", "values": [{"measurement": "stoichiometry N", "setting": "[5]", "value": 6}]}
{"molecule": "Y62F-NiSOD (enzyme)", "values": [{"measurement": "stoichiometry N", "setting": "[6]", "value": 6}]}
{"molecule": "B1", "values": [{"measurement": "stoichiometry N", "setting": "[7]", "value": 6}]}
